Assay [1] deals with protein kinase A. Kind of assay: cell-based or functional assay.
Assay [2] has as its target protein kinase A. Kind of assay: method not stated.
Another assay has as its target GST-KIX. Kind of assay: fluorescence polarization.
Assay [3] concerns the target GST-hDM2 (residues 1-188) (human) (UniProt Q00987). Kind of assay: fluorescence polarization, competition format.
For assay [4] the target is unchanged. Kind of assay: fluorescence polarization, 25 nM labeled peptide with varying GST-hDM2, 4°C.
For assay [5] the target is unchanged. Kind of assay: 400 nM GST-hDM2 and 10 nM p53AD-Flu in the absence of pZutshi.

Sequence of GST-hDM2 (residues 1-188) (human) (Q00987 1-188): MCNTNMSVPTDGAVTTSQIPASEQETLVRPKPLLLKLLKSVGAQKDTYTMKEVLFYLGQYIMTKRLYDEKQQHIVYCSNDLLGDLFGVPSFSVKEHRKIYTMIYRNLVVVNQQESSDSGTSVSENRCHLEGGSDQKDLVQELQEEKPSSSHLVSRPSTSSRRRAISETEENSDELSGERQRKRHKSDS
Sequence of GST-KIX (P45481 586-665): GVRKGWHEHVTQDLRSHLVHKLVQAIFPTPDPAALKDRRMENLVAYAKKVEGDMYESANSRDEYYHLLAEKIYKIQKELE

Turning to PKI (peptide), the IC50 (inhibition of PKA) with protein kinase A [1] turned out to be 0.008 µM. For the same substance, the Kd in the assay with protein kinase A [2] is 0.0312 µM. On to Phosphorylated KID20 (peptide), for which the Kd with GST-KIX stood at 48 µM.

For Phosphorylated KID31 (peptide), the Kd with GST-KIX is 1.2 µM. “p53AD peptide (residues 15-33), not labeled” returned a Kd in assay [3] of 1200 µM.

Consider p53AD-Flu (peptide), for which the Kd in assay [4] was 0.261 µM. In addition, in assay [5], the percent bound was found to be 60%.

By Kd is commonly meant the free concentration of one partner at which half of the binding sites on the other are occupied at equilibrium, for simple one-to-one binding. Low readings indicate a tighter complex, high ones a looser complex.

For the origin of these results see patent EP1724347A2.
